Experimental data published in the NTF2 design screens of Basanta et al. (2020).

Test: protease stability score; higher = more stable; yeast display proteolysis, trypsin and chymotrypsin;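 further: relative to predicted unfolded state with 0 unfolded-like and 1 meaning tenfold more protease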

Row | Sequence | protease stability score
1 | SEDHEDMDRMFDLLIKLLYTGDEESLEELFDPNTRIDVGDKVLHGRELAVKHVKDRLRRADHIEFHIKDRRAIDGRLEIDMELRIHVDGKDIIIRTKVHLEKVNGRWLIHHIKVH | 1.38
2 | SEDHEEVRKVTKVYLELFETGDEEELMKLADPEVRLHINGRDLHGREWMERAIRELLEYYGVKHIESWTIHDITIQGDKAVMDTSVKIRVNGREHELKMHIYSRKFDGRWFLTSVRFH | 1.26
3 | SEDHEFSEHALREFIHVLMTGDERSLLKLMDPHTQLIFNGKEIHGMEEIIRIWSEHVKRFGFNHIDHVHIHHVEIQGDKIRIDGTTRGLVNGREHTHRTHLIAIKYNGKWIIHNIKID | 1.9
4 | SEDHEFVRFIIEQLLHDLFTGDWRRLLKLFDPNAMIEVGDKTLHGMENIYRWHEEHYERLGLSNVEIHILIRKIHIQGDKVHIDGLLRLHFNGRDTEIHVRLHALKIDGKWQLTRVQHD | 1.89
5 | SEDHEIARLAVEIETHSQLTGDEESMNHLLDPTTRININGRELHGREEAIEWMKRFMEQFDHVKVEVEDISIQGEKLIIRGRFSVIYDGRKVQDHTEVIIVKFNGRWHVKSVHIR | 2.58
6 | SEDHEIIRHYFELLVESFRTGDEETTRRLADPNTRLYFNGKTLHGMEAMLEVLLEIRIEEVELHHVEVINGRVEMDGTVRGIFNGRNQEVKVTFHARKINGVWILNWVEIH | 2.12
7 | SEDHEISRRMLEMVLDSFDTGDEHIYKDLADPHAKIEVNGKDIHGWDTWASEMVERTERVPGVRKEIHIRDIKSQGDKIEIRGEVIIDFNGKTIRYRVLFVIEKINGRWFIKSEHIK | 1.04
8 | SEDHELLKRELETFIKHLETGDEDILRRLADPHVRLEYNGKEFHGRDRIVEEWVRIAREIRIKVEIHHITYIGDKLEVDTILKIEQGDKRTEFRIEIFIQKVNGQWLLKEIKIK | 1.44
9 | SEDHELRKHLADRTYKWLATGNFEELMKLMDPNTRFTIGEFNDHGRKAIEWLWRELGVDHFHFREIRVQGDKIHMDTEFEFNGVKVRTHFRVIVIDGRVTSVIILTE | 1.34
10 | SEDHELVHRFTHFFLRMYFTGDEKEMEDLLDPNTRILWNGKEFHGREEVIEALRYIRSHARIRDFTIHSFEIFDGRAKMDTREHGEIDGRLRTFTLRLHILKVNGRWQFQEIQIE | 2.12
11 | SEDHEMAKRIVKQFMEEIFTGDWRDFEELLDPDVRIIIGDKELHGREQFELELRHMRRSIDEMHFTDAKVVGDKMIFDTRMKITIHVNGKELRFTTKSTFFILKVDGVWRIRQITVL | 2.13
12 | SEDHEMVKKLIHDLMRARSTGDEEEFYKLLDPHVRSDINGQETHGREEFVHWFIRHHHEFGFDHVERVHLHHIELIGDKIHVDLIVHITVGEYTIVTHEHLVIWKIDGRWVLRSMDLH | 1.43
13 | SEDHENIERFLTHFVTAIETGNFNELEKLLDPNAQIEINGQRIHGREWFVDHIRRIKNIRFEIHVEDSEFYNGKAHIRTRLILKYGDKEREHDVVLVIRKINGRWVIEWIIIE | 1.54
14 | SEDHENLRKSLEFFKHVVDTGDFRKLLQLADPNTRIIINGQTVHGMELTQKIWIHQFREAGHTRIHIRIEDIDVQGDKIQIDGKLDINGQERDTNLFIEKVNGRWIIRSIEFQ | 1.38
15 | SEDHERERRVNEEFLTAMWTGDEKWIMNLADPNVRTEWNGVENIGRETISEHLDHQKKRLGVKHIEIKHVEIINGVLHMHGRLDVNGVETEVIIRSFIIDGRLTELIFEIR | 0.819
16 | SEDHERMKEMIELTLHAIFTGDEDLLKRLLDPHTRIVVNGQDRHGRHALEWFLSVLGIKHIHYEIVRTHLVNGVLHNHIHGHLNVNGKTYELEVEITIRKINGRWLMHVVQWDII | 1.99
17 | SEDHERTEIAFKIMLHIFDTGDEHTMHRLVDPNARLRIGDKDWHGREFFFDVISRIKNLRIEELSIEDDDFVNGRIILHGRRNGSIGDKEIDTIVHLLIKKVDGRWRIEHVHNE | 1.36
18 | SEDHEVARDIMEILLHLYLTGNEEDLKQFFDPHVRLVIGDKNIHGREEVVNHLKRILDRIPNVRVKHFTLHDIRIIGDKIYLNTEIHVKINGRDHRSETRWVILKVDGVWHLHSVEVG | 2.05
19 | SEDHEVLRVALELMLHFLTTGDWHLLRKLMDPEVRIRVGEKHIHGMDLILSEWVRVIRELGVKHYHIEVKRDHHQGDKIHLDGTLHIDVNGRQIHIRTEIIAHKVDGKWIHESQVIN | 0.988
20 | SEDHHETQRALELLVTFLRTGDEHTLERLMDPDTRSIIDGVELHGREDMKEVLEWLVKQADHLESVHVRYLNVQGDKAQIHVELRGRFNGKHSIHEVHITTVKINGKWLITEVEFR | 1.93
21 | SEDHHLMEHAIEIMLEMIRTGDEQKYLNLVDPHARLEIDGREHHGWKRMREVFRWLGVDHSDVRHVNVQGEKVEVDTIIEVGDKRIEVIVIVRKINGRWVIEEVRVH | 0.549
22 | SEDHHSLRNAWELLIKSIKTGDENLMERFADPSTKSRIDGVELVGREEVVHYFMQLRVKDVKLDEVDVVDGRVVIDGTLHGEYNGREETHKVRLFINKVDGQWILHSVEFH | 0.938
23 | SEDHKASHFNLILLLRAINTGDEDLEKELADPHVRYEFNGVDLVGMEDWVRFLEEIRVHPRDVKIQRHRVVNGRITFDVRLEGEFTYNGRTYRDTRETTAFVLKVNGRWIMHLHRID | 1.48
24 | SEDHKETEEAMHKIRHDLETGDEKSWHEQADPNTRIDINGVDLHGREWASKFYSDVMQKVKGATVHLKHVHIFENRLIVDGIEIVNGRTHRVHLIADKINGRWVIREIRVE | 1.06
25 | SEDHKQAEEFMHRVAHNVLTGDEEKLDELIDPDARLEIGDKEHHGREIFIEFWRQLRVRDIKIRHWEIIGDKIFIRGEMNGIVDGRTRIFDIIVVMVKINGKWTLKRVEIK | 1.5

Row | Sequence | protease stability score
26 | SEDHLEARETVTEELRARQTGDERRLDELIDPNTRLEINGKEVHGMEQIIEETRRLGVDVVEIRLERHDRFNGVIHVRGRLHYNWNGKSIDHETELIVYKVDGQWIVHSIHVL | 1.05
27 | SEDHRDAEKFLRLFMELFKTGDFEELFRLVDPNVRLEINGREFHGRELVKKLLKEEHDRYKNATSEVEIDRIHIQGDWVHADIELRLDYNGKTLRWETHLVMLKVDGRWFVRSYSER | 2.6
28 | SEDHREARHAVHVFLHLLETGDEDHLVKLLDPNVRYVIGDKTHHGWEELERIRNKFKNIRITLRDRDFHIFDGRLLVLIRGELEFDGRRVDFEVITYIEKINGRWIVSEFRIHLN | 1.5
29 | SEDHRHAMEFIHHMVRAIHTGDEQILTEYLDPHVRIENENETLHGWEHRTEWMKRFDHIDRHIIVRHVEIQGNKVKVDAELRFRLHQGDFVEENEIRLRIIILKVDGRWVLHKVRFI | 1.35
30 | SEDHRMMKEALDKLIDSIETGDPELYLRLFDPDTQTRIGDKHIHGWEEIEKIFRKILERFDHFEHMHLEHFDIQGNYIHLDIRLWGKVNGKRITLNIRVVVVKYNGRWTIREESLT | 1.72
31 | SEDIDIAREMADIIIKYWETGDEDNVRQLMDPNVKFHIGDKVNIGREWMLEFVRHWKEHARMHLKVEDFRIVGDKIHVDTRIELNVNGREMHIDLHIHLRIVNGRLKSSHIEHR | 1.19
32 | SEDIEELRKVFEDWVRILRTGDEKSHKELMDPTYRNDQGEFHYHGMEDLEKFTRRYDHVNLIFRDMRLVNGVARVDGEIQLHQGDFKIDTHVIIYMLKIDGQWRIRSIEIR | 2.08
33 | SEDIEHVEEALEMFRETLITGDEEIIRRLIDPHVRIIINGREYHGREAMDHFMKRFDVIHNLHITHWEDINGRMHVHGRIEGNIDGKTDVIETRILVVKVDGQWWFETIRIG | 2.27
34 | SEDIEIVKQVLEFHIRSEITGDEDTMTELLDPHTRITIGDKHIHGREEAVRILLEIANHMRIHRFHVHQVHIYDGRLEIDMRIDREYDGKRRHQEVWWIFIKVNGRWYIHSIEIR | 1.67
35 | SEDIELVHNIMEHMAKAFTTGDERHLLNLFDPNVRFMINGQNYVGWEHLINWIEHIRIKRVDLRINDVKLIGDKLHIHGRFIVRGQIDGREIDRVEDTRINFQKINGRWIIEELHFV | 2.61
36 | SEDIKEIKDILRTMYEAFITGDWRTVAKLFDPHVRIEYDGVRLHGREHVEHFLRHLRERVEWHHIEDTQEQGDYIELHGRTILNIEIGDKRDRRDSHFILMMVKVDGRWLIHRIIIR | 2.21
37 | SEDKDNAQDLLHHVVKAWNTGDEDLTRKLFDPHVRLDINGVEIHGWRDLLRVLRELRLRVEMRVHDADFINGVIHLYTTVHSHIHFNGVDFHFHHETRMIILKINGRWLVHSITYL | 0.675
38 | SEDKEADEIIIEKIMRALTTGDENLWKRLLDPNVRFEYDGVEMHGWEEIKKLLERIDHFHVDDHKIKDVRIIDGRIDNYGRLRGTIDINGREIHTILHVRILVLKIDGKWTVESEHSK | 1.43
39 | SEDKEAFHRVMKLLLHAWRTGDEDREKELFDPNVRFIIGDKIIIGREEWLKLLRRIDHLEVDLDIKRLEVIGDKIKAEFRLHEILKIDGVEIHQEHEVRLHLHKINGRWIIERVHVE | 0.845
40 | SEDKEEAEEFVRIFNEALITGDFEFIEHLADPNVKYRQGEYHEHGRESLSHMFRFLGWSNVKIHLRHIKFYGDKIEVHGEVRIDGRTHWVNSYITKYDGRWYLTSLQIE | 1.21
41 | SEDKELADRFLNHITHLIRTGDENALSENLDPNTRLHIGDKHYIGWEEFLRIISERWKRADHQDVKLRDSRVQGDKVHLDGEIILIVDGKEIRHDFRIIVYKIDGRWHLESIRIG | 2.09
42 | SEDKELAERLYHLLLRTLITGDEKQLIDNMDPDARVHVGDKHRHGMEWMNRYLHELRIRDQDDKDIRLQGNKVHVDGHVRGNINGQEIDYRFHIELITINGVVHMINIQIR | 0.945
43 | SEDKEMADWAIEIWVKSIRTGDEHTQLHLVDPHYREDVGDKEIHGRDELRRHMHEARVDEFRHKIDRMRTQGNKVHLDGIFQMKIRIDGKVDHIEFHSRLVVEKVDGRWLVKSLHIN | 1.21
44 | SEDKHMLELALKLLKDSWKTGDEHLSERLMDPHVRLEQGDKEFHGREASQLWFRQIDHVEDMHVHRIRMINGKAYMDVHVVGNVNGKHVEFHQHIVFHKVNGRWIVESVVDS | 1.26
45 | SEDKKATNEASEIIIRLLKTGDEHLANHYIDPNVRMIFENRDVHGRETFEEWMRRVDHFHHYDVRHVHTQGDKINIDSEHNIHINGQEEIKDVYWISTKIDGKWILKSIEVR | 1.28
46 | SEDKKTLEHYFRELMHVLQTGDETEFVKLLDPDARLIIGDKSDHGREEVSRSLLEFQRILGIDHLEFRHTHLDIQGDKITIILQVRMKVNGREHHSRLIFVAEKVNGRWVLRSVIFEIH | 2.18
47 | SEDKNAVHEIVERFLKAMLTGDEHILKTLLDPHVRLHIGDKSRVGMERVIHELIHIRIHELRVESMEMRLWDGRAEVHVFGEVRQRVDGQERNITTSIILHIEKIDGRWHLTQLQFIIS | 2.53
48 | SEDMERAESFHREWLEFSRTGDEDTLRSLLDPNARLRYGDKEYHGMDSLSRVDRELRVHDSRVHDLRIIDGRVHMDVDLDGTYNGKRVLLHTHFVVEKIDGRWILRSVHIH | 0.643
49 | SEDNEHLRKFLEDFIRAMETGDWKMLFRLMDPNVRMEVNGRELHGREEAKKLIEEIISRYDHVHIEIKRAHSIGDKIEVWGISDVEIGDKKHEIPLLFILKKVDGKWIIHSIRSE | 2.11
50 | SEDNEIIHEMVQLFVDLFFTGDWEMLLSLFDPNVRMIVNGKTIHGRENIAHEVREFLERFKNVRFRDATIEHYSWQGDKLHAQIHIEGEINGRDRHSNVHIHITKIDGKWLITRIEVR | 2.39
